Assays:
Test in all cases: SPOT array
Hse1, P38753 = target: T1, Hse1, P38753; settings: median of control spots 1727
T1 sequence (P38753 208-285, looked up): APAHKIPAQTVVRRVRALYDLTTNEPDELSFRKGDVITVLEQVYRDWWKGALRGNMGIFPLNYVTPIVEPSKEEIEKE

Sho1, P40073 = settings: median of control spots 1148
Cdc25, P04821 = target: T2, Cdc25, P04821; settings: median of control spots 969
T2 sequence (P04821 50-136, looked up): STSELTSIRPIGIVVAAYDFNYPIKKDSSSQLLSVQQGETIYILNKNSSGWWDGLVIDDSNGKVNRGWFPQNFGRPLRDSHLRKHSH

Sla1-3, P32790 = target: T3, Sla1-3, P32790; settings: median of control spots 5475
T3 sequence (P32790 344-424, looked up): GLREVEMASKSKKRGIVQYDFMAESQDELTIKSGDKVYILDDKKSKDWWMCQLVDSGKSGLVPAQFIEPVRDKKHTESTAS

Abp1, P15891 = target: T4, Abp1, P15891; settings: median of control spots 935
T4 sequence (P15891 535-592, looked up): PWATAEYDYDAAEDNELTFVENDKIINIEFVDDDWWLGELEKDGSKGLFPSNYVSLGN

Boi1, P38041 = target: T5, Boi1, P38041; settings: median of control spots 1162
T5 sequence (P38041 1-86, looked up): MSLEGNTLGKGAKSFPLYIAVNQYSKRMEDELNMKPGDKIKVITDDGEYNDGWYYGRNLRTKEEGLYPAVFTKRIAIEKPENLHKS

Sla1-2, P32790 = target: T6, Sla1-2, P32790; settings: median of control spots 712
T6 sequence (P32790 60-140, looked up): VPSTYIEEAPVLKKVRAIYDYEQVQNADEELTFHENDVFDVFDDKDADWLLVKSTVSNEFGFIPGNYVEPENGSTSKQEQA

Fus1, P11710 = target: T7, Fus1, P11710; settings: median of control spots 1200
T7 sequence (P11710 432-512, looked up): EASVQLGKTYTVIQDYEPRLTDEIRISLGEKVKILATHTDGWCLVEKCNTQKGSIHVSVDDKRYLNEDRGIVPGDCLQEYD

Lsb3, P43603 = target: T8, Lsb3, P43603; settings: median of control spots 406
T8 sequence (P43603 385-451, looked up): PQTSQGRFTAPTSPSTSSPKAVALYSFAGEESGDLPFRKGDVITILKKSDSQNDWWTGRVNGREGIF

Cyk3, Q07533 = target: T9, Cyk3, Q07533; settings: median of control spots 1451
T9 sequence (Q07533 1-83, looked up): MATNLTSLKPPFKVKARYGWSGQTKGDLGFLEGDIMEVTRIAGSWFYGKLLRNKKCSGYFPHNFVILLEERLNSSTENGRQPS

Bzz1-2, P38822 = target: T10, Bzz1-2, P38822; settings: median of control spots 4538
T10 sequence (P38822 568-633, looked up): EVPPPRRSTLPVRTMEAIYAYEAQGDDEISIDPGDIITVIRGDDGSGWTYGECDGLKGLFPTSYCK

Bem1-2, P29366 = settings: median of control spots 4347
Bem1-2, P29366, sequence (P29366 139-227): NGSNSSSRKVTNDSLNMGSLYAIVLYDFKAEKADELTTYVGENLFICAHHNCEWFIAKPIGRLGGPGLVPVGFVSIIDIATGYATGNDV

Lsb1, P53281 = target: T11, Lsb1, P53281; settings: median of control spots 388
T11 sequence (P53281 45-122, looked up): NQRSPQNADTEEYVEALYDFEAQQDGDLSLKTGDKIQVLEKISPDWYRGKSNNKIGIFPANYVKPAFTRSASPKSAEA

Nbp2, Q12163 = target: T12, Nbp2, Q12163; settings: median of control spots 357
T12 sequence (Q12163 103-180, looked up): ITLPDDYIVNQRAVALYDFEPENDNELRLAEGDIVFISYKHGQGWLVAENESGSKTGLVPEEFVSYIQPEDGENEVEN

Boi2, P39969 = target: T13, Boi2, P39969; settings: median of control spots 1161
T13 sequence (P39969 32-116, looked up): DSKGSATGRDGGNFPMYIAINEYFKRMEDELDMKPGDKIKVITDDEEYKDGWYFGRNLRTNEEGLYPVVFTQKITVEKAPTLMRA

Lsb4, P32793 = target: T14, Lsb4, P32793; settings: median of control spots 397
T14 sequence (P32793 402-468, looked up): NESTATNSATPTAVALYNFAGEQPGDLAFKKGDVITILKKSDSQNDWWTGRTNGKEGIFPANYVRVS

Myo5, Q04439 = target: T15, Myo5, Q04439; settings: median of control spots 471
T15 sequence (Q04439 1072-1160, looked up): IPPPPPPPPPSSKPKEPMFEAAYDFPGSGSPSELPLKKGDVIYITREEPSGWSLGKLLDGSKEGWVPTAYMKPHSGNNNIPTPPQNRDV

Bbc1, P47068 = target: T16, Bbc1, P47068; settings: median of control spots 796
T16 sequence (P47068 1-78, looked up): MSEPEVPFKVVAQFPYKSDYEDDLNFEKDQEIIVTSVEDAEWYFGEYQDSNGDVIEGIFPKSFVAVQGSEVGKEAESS

Myo3, P36006 = settings: median of control spots 468
Pex13, P80667 = target: T17, Pex13, P80667; settings: median of control spots 1341
T17 sequence (P80667 295-386, looked up): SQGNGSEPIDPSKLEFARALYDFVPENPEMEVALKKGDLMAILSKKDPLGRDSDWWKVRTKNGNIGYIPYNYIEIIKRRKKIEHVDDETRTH

Pin3, Q06449 = target: T18, Pin3, Q06449; settings: median of control spots 2171
T18 sequence (Q06449 53-122, looked up): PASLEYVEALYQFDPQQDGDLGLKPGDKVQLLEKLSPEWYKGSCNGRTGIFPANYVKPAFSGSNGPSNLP

Hof1, Q05080 = target: T19, Hof1, Q05080; settings: median of control spots 4086
T19 sequence (Q05080 590-669, looked up): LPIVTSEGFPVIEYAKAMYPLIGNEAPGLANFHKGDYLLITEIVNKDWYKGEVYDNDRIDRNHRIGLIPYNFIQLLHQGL

Bud14, P27637 = target: T20, Bud14, P27637; settings: median of control spots 956
T20 sequence (P27637 247-328, looked up): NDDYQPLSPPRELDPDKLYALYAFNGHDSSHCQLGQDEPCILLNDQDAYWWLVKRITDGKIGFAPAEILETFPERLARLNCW

Bem1-1, P29366 = settings: median of control spots 4282
Bem1-1, P29366, sequence (P29366 55-141): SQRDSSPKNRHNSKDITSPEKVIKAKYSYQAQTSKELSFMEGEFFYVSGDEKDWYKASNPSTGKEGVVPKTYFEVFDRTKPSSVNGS

Rvs167, P39743 = settings: median of control spots 2707
Rvs167, P39743, sequence (P39743 419-482): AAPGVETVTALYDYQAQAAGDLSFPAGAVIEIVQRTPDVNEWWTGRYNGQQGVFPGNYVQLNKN

GST = settings: median of control spots 978
Bzz1-1, P38822 = target: T21, Bzz1-1, P38822; settings: median of control spots 4446
T21 sequence (P38822 478-572, looked up): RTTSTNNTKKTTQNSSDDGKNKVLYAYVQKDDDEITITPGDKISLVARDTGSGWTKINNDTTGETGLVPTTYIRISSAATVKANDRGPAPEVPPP

Sho1, P40073, sequence (P40073 287-367): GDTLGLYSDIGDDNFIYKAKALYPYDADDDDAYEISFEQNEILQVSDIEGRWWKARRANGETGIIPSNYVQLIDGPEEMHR

B1: unnamed (peptide)
chain: SSTPTTPERPKRKSG
An SPOT intensity (Hse1, P38753) of 0, an SPOT intensity (Sho1, P40073) of 0 and an SPOT intensity (Cdc25, P04821) of 1 were found for B1 in this work. For the same binder, the SPOT intensity (Sla1-3, P32790) was 0, the SPOT intensity (Abp1, P15891) was 22 and the SPOT intensity (Boi1, P38041) was 0. For the same binder, the SPOT intensity (Sla1-2, P32790) was 0, the SPOT intensity (Fus1, P11710) was 0 and the SPOT intensity (Lsb3, P43603) was 442. For the same binder, the SPOT intensity (Cyk3, Q07533) was 1, the SPOT intensity (Bzz1-2, P38822) was 1 and the SPOT intensity (Bem1-2, P29366) was 0. For the same binder, the SPOT intensity (Lsb1, P53281) was 316, the SPOT intensity (Nbp2, Q12163) was 0 and the SPOT intensity (Boi2, P39969) was 2. It also gave an SPOT intensity (Lsb4, P32793) of 363, an SPOT intensity (Myo5, Q04439) of 0 and an SPOT intensity (Bbc1, P47068) of 559. For the same binder, the SPOT intensity (Myo3, P36006) was 0, the SPOT intensity (Pex13, P80667) was 8 and the SPOT intensity (Pin3, Q06449) was 6. For the same binder, the SPOT intensity (Hof1, Q05080) was 0, the SPOT intensity (Bud14, P27637) was 0 and the SPOT intensity (Bem1-1, P29366) was 1. It also gave an SPOT intensity (Rvs167, P39743) of 0, an SPOT intensity (GST) of 2 and an SPOT intensity (Bzz1-1, P38822) of 1.

B2: unnamed (peptide)
chain: AERNYAPRLPRRETS
An SPOT intensity (Hse1, P38753) of 4, an SPOT intensity (Sho1, P40073) of 32 and an SPOT intensity (Cdc25, P04821) of 11 were found for B2 in this work. The SPOT intensity (Sla1-3, P32790) was 5, the SPOT intensity (Abp1, P15891) was 50 and the SPOT intensity (Boi1, P38041) was 0. It also gave an SPOT intensity (Sla1-2, P32790) of 0, an SPOT intensity (Fus1, P11710) of 0 and an SPOT intensity (Lsb3, P43603) of 371. It also gave an SPOT intensity (Cyk3, Q07533) of 0, an SPOT intensity (Bzz1-2, P38822) of 1 and an SPOT intensity (Bem1-2, P29366) of 0. The SPOT intensity (Lsb1, P53281) was 352, the SPOT intensity (Nbp2, Q12163) was 0 and the SPOT intensity (Boi2, P39969) was 0. The SPOT intensity (Lsb4, P32793) was 137, the SPOT intensity (Myo5, Q04439) was 0 and the SPOT intensity (Bbc1, P47068) was 18. It also gave an SPOT intensity (Myo3, P36006) of 0, an SPOT intensity (Pex13, P80667) of 76 and an SPOT intensity (Pin3, Q06449) of 18. It also gave an SPOT intensity (Hof1, Q05080) of 0, an SPOT intensity (Bud14, P27637) of 12 and an SPOT intensity (Bem1-1, P29366) of 1. It also gave an SPOT intensity (Rvs167, P39743) of 306, an SPOT intensity (GST) of 0 and an SPOT intensity (Bzz1-1, P38822) of 0.

B3: unnamed (peptide)
chain: SAPDIPPRSPNRNAH
An SPOT intensity (Hse1, P38753) of 0, an SPOT intensity (Sho1, P40073) of 0 and an SPOT intensity (Cdc25, P04821) of 0 were found for B3 in this work. It also gave an SPOT intensity (Sla1-3, P32790) of 3, an SPOT intensity (Abp1, P15891) of 8 and an SPOT intensity (Boi1, P38041) of 240. For the same binder, the SPOT intensity (Sla1-2, P32790) was 423, the SPOT intensity (Fus1, P11710) was 0 and the SPOT intensity (Lsb3, P43603) was 207. It also gave an SPOT intensity (Cyk3, Q07533) of 0, an SPOT intensity (Bzz1-2, P38822) of 0 and an SPOT intensity (Bem1-2, P29366) of 0. It also gave an SPOT intensity (Lsb1, P53281) of 857, an SPOT intensity (Nbp2, Q12163) of 0 and an SPOT intensity (Boi2, P39969) of 312. The SPOT intensity (Lsb4, P32793) was 145, the SPOT intensity (Myo5, Q04439) was 0 and the SPOT intensity (Bbc1, P47068) was 1. It also gave an SPOT intensity (Myo3, P36006) of 0, an SPOT intensity (Pex13, P80667) of 21 and an SPOT intensity (Pin3, Q06449) of 4. The SPOT intensity (Hof1, Q05080) was 0, the SPOT intensity (Bud14, P27637) was 2 and the SPOT intensity (Bem1-1, P29366) was 0. For the same binder, the SPOT intensity (Rvs167, P39743) was 816, the SPOT intensity (GST) was 0 and the SPOT intensity (Bzz1-1, P38822) was 0.

B4: unnamed (peptide)
chain: QRIRKIPGIPLMSVG
An SPOT intensity (Hse1, P38753) of 7, an SPOT intensity (Sho1, P40073) of 42 and an SPOT intensity (Cdc25, P04821) of 2 were found for B4 in this work. The SPOT intensity (Sla1-3, P32790) was 8, the SPOT intensity (Abp1, P15891) was 110 and the SPOT intensity (Boi1, P38041) was 0. For the same binder, the SPOT intensity (Sla1-2, P32790) was 4, the SPOT intensity (Fus1, P11710) was 6 and the SPOT intensity (Lsb3, P43603) was 51. It also gave an SPOT intensity (Cyk3, Q07533) of 2, an SPOT intensity (Bzz1-2, P38822) of 13 and an SPOT intensity (Bem1-2, P29366) of 0. For the same binder, the SPOT intensity (Lsb1, P53281) was 78, the SPOT intensity (Nbp2, Q12163) was 5 and the SPOT intensity (Boi2, P39969) was 0. The SPOT intensity (Lsb4, P32793) was 24, the SPOT intensity (Myo5, Q04439) was 7 and the SPOT intensity (Bbc1, P47068) was 16. It also gave an SPOT intensity (Myo3, P36006) of 28, an SPOT intensity (Pex13, P80667) of 90 and an SPOT intensity (Pin3, Q06449) of 71. For the same binder, the SPOT intensity (Hof1, Q05080) was 13, the SPOT intensity (Bud14, P27637) was 9 and the SPOT intensity (Bem1-1, P29366) was 0. For the same binder, the SPOT intensity (Rvs167, P39743) was 156, the SPOT intensity (GST) was 0 and the SPOT intensity (Bzz1-1, P38822) was 0.
